Assay results taken from PMC11365994 (Communications Biology, 2024).

Biological target: T1, falcilysin E132Q single mutant (residues 59-1193) (Plasmodium falciparum, UniProt Q76NL8 59-1193, E132Q)
T1 sequence (looked up): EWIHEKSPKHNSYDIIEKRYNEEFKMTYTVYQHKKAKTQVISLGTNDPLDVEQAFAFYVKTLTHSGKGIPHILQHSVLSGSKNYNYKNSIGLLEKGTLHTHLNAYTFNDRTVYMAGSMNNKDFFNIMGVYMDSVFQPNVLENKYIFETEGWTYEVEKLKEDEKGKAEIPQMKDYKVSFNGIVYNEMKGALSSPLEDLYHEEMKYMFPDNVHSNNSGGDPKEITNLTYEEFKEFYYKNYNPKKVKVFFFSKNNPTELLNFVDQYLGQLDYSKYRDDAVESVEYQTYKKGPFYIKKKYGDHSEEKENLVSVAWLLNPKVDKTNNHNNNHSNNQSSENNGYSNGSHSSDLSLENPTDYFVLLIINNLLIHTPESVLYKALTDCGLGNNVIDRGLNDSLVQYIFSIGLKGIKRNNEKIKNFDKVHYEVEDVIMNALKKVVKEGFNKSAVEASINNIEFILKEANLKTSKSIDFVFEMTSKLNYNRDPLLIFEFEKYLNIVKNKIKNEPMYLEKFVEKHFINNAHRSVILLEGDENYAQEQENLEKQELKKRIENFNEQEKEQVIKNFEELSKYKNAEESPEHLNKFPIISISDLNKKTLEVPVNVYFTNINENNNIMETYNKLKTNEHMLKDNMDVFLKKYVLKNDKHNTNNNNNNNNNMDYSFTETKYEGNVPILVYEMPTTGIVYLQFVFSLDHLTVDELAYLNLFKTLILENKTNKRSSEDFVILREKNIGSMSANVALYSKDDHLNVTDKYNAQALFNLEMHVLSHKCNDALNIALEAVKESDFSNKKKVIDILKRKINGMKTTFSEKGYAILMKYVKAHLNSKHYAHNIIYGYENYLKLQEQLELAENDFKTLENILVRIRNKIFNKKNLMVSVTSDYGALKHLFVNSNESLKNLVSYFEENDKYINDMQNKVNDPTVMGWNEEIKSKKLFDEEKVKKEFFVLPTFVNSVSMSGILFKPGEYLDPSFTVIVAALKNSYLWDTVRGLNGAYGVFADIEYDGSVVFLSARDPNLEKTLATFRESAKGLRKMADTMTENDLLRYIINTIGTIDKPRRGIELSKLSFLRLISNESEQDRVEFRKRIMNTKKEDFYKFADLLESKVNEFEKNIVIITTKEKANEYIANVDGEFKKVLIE
Test: ITC

VVYPWTQRFFESFGD [hemoglobin β chain peptide (residues V33 to D47)]
Kd: 499 nM

LSFPTTKTYFPHFD [hemoglobin α chain peptide (residues L34 to D47)]
Kd: 933 nM
